US20260263599A1 (AUTOLUS, published 2026)
Residue numbers refer to the chain shown, from its start. Values belong to the binder of their own block, whether it stands above or below them.

Molecular target: T1, T Cell Receptor Beta Constant 2 (TRBC2) (human, UniProt A0A5B9 1-144, limits assumed)
T1 construct: ELISA antigen; also called TCR beta constant region 2
Assay: ELISA

T1 sequence (A0A5B9 1-144 limits assumed): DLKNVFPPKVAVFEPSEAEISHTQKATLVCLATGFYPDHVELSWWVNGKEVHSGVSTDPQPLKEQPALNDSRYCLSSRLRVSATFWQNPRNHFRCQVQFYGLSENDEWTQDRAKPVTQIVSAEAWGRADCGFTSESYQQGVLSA

- binding result: no binding
B1: Jovi Hum 8 (antibody, V domains shown)
VH: QVQLVQSGAEVKKPGASVKVSCKASGYTFTGYVMHWVRQAPGQGLEWMGFINPYNDDIQSNERFRGRVTMTRDTSISTAYMELSRLRSDDTAVYYCARGAGYNFDGAYRFFDFWGQGTMVTVSS
VL: DIVMTQSPLSLPVTPGEPASISCRSSQRLVHSNGNTYLHWYLQKPGQSPRLLIYRVSNRFPGVPDRFSGSGSGTDFTLKISRVEAEDVGVYYCSQSTHVPYTFGQGTKLEIK
notes: also called H-AF 1; humanised antibody with H-AF062256 VH and 3aaz VL

- binding result: no binding
B2: Jovi Hum 21 (antibody, V domains shown)
VH: B1 VH with M48I, R72S
VL: B1 VL
notes: also called H-AF 7

- binding result: no binding
B3: Jovi Hum 20 (antibody, V domains shown)
VH: B1 VH with M48I, T74K
VL: B1 VL
notes: also called H-AF 6

- binding result: no binding
B4: Jovi Hum 27 (antibody, V domains shown)
VH: B1 VH with V20M, M48I
VL: B1 VL
notes: also called H-AF 13

- binding result: no binding
B5: Jovi Hum 17 (antibody, V domains shown)
VH: B1 VH with R72S
VL: B1 VL
notes: also called H-AF 3

- binding result: no binding
B6: Jovi Hum 16 (antibody, V domains shown)
VH: B1 VH with T74K
VL: B1 VL
notes: also called H-AF 2

- binding result: no binding
B7: Jovi Hum 18 (antibody, V domains shown)
VH: B1 VH with R72S, T74K
VL: B1 VL
notes: also called H-AF 4

- binding result: no binding
B8: Jovi Hum 19 (antibody, V domains shown)
VH: B1 VH with M48I
VL: B1 VL
notes: also called H-AF 5

- binding result: no binding
B9: Jovi Hum 26 (antibody, V domains shown)
VH: B1 VH with V20M, R72S, T74K
VL: B1 VL
notes: also called H-AF 12
